The record followed here is patent US11319348B2, “Synthetic beta-amyloid peptides capable of forming stable antigenic oligomers” (The Regents of the University of California, priority 2016, dated 2022).

Non-standard residues stand in square brackets, D forms with d. No end group written: not given here. NMeF = CN[C@@H](Cc1ccccc1)C(=O)O; Orn = NCCC[C@H](N)C(=O)O

Series [1] deals with caspase-3. The experiment in a line: caspase-3 activation assay. The series is classed as cell-based, human. Particulars: for caspase-3 activation / induction of caspase-3 mediated apoptosis: SH-SY5Y cells; for caspase-3 activation: 72 h; for induction of caspase-3 mediated apoptosis: trimers at 6 μM, within 72 h; for caspase-3 activity level compared to staurosporine: after treatment of SH-SY5Y cells. As to the method: One of the ways in which A oligomers elicit toxicity is through induction of caspase-3 mediated apoptosis. Trimers 3 and 4 were evaluated for their ability to induce caspase-3 mediated apoptosis using a rhodamine-based caspase-3 activity assay.
The toxicities of peptides 1 and […], and trimers 3 and 4 toward SH-SY5Y cells were assessed by LDH release and caspase-3 activation assays. Cells were incubated in the presence or absence of equivalent concentrations of peptides 1 or 3, or trimers 3 and 4 for 72 h in 96-well plates. The LDH release assay was performed using the Pierce LDH Cytotoxicity Assay Kit from Thermo Scientific. The caspase-3 assay was performed using the Roche APO-One Homogeneous Caspase-3/7 Assay. Experiments were performed in replicates of five and an additional 10 wells were used for controls. Cells were cultured in the inner 60 wells (rows B-G, columns 2-11) of the 96-well plate. DMEM:F12 media (100 μL) was added to the outer wells (rows A and H, columns 1 and 12), in order to ensure the greatest reproducibility of data generated in the inner wells.
SH-SY5Y cells were plated in a 96-well plate at 30,000 cells per well. Cells were incubated in 100 μL of a 1:1 mixture of DMEM:F12 media supplemented with 10% fetal bovine serum, 100 U/mL penicillin, and 100 μg/mL streptomycin at 37° C. in a 5% CO2 atmosphere and allowed to adhere to the bottom of the plate for 24 hours.
After 24 hours, the culture media was removed and replaced with 90 μL of serum-free DMEM:F12 media. A 10 μL aliquot of the working solutions of peptides 1 or 2, or trimers 3 and 4 was added to each well, for a well-concentration of 18 μM and 9 μM for peptides 1 and 2, 6 μM and 3 μM for trimer 3 or 6 μM, 3 μM, 1.5 μM, and 0.75 μM for trimer 4. Experiments were run in replicates of five. Five wells were used as controls and received a 10 μL aliquot of deionized water (vehicle). Another five wells were left untreated, to be subsequently used as controls with lysis buffer for the LDH release assay, or staurosporine for the caspase-3 activation assay. Cells were incubated at 37° C. in a 5% CO2 atmosphere for 72 hours.
After 67 hours, 10 μL of 10× staurosporine was added to the control wells, and the cells were incubated for an additional 5 h. Next, the compound-containing media was removed and replaced with 25 μL of fresh serum-free DMEM/F12 media. A 25-μL aliquot of caspase-3 substrate, prepared according to manufacturer's protocol, was then added to each well. The plate was sealed with a clear adhesive plate sealer and fluorescence was monitored over 18 h while shaking at 250 rpm using a Gemini XPS fluorescence plate reader (excitation at 499 nm, emission at 521 nm). Data from the 18 h time point were processed by subtracting the relative fluorescence units (RFU) of the vehicle control wells from the RFU of the peptides 1 and 2 or trimers 3 and 4-treated wells.

Series [2] can be described thus: Tricine SDS-PAGE with silver staining. The format is physicochemical. The text has this: Trimer 3 migrates as a single band at a molecular weight consistent with a hexamer. Trimer 4, in contrast, migrates as two distinct bands: a band consistent with the molecular weight of a dodecamer, and a band consistent with the molecular weight of a trimer.
Peptide 8 assembles to form a hexamer in SDS-PAGE. […] To further confirm the oligomerization state of […], it was compared to covalent trimers 3 and 4 (FIGS. 19A and 19B), which was previously determined to migrate respectively as 10.6 kDa hexamers and 21.2 kDa dodecamers in equilibrium with the 5.3 kDa trimers. Peptide 8 migrates at the same molecular weight as the hexamer band of trimer 3, providing further evidence that peptide 8 assembles to form a hexamer in SDS-PAGE.
The oligomerization of peptides 1 and 2 and trimers 3 and 4 was studied by Tricine SDS-PAGE.
Each peptide or trimer was dissolved in deionized water to a concentration of 10 mg/mL. An aliquot of the 10 mg/mL solutions was diluted with deionized water to create 2 mg/mL solutions of peptides 1 and 2, or 0.12 mg/mL solutions of trimers 3 and 4. The […] of peptides 1 and 2, as well as the 0.12 mg/mL solutions of trimers 3 and 4 were further diluted with 2×SDS-PAGE loading buffer (100 mM Tris buffer at pH 6.8, 20% (v/v) glycerol, and 4% SDS) to create 1 mg/mL working solutions of peptides 1 and 2, and 0.06 mg/mL working solutions of trimers 3 and 4. A 5 μL aliquot of each working solution was run on a 16% polyacrylamide gel with a 4% stacking polyacrylamide gel. The gels were run at a constant 60 volts at 4° C.
Staining with silver nitrate was used to visualize peptides 1 and 2 and trimers 3 and 4 in the SDS-PAGE gel. Briefly, the gel was removed from the casting glass and rocked in fixing solution (50% (v/v) methanol and 5% (v/v) acetic acid in deionized water) for 20 min. Next, the fixing solution was discarded and the gel was rocked in 50% (v/v) methanol for 10 min. Next, the 50% methanol was discarded and the gel was rocked in deionized water for 10 min. Next, the water was discarded and the gel was rocked in 0.02% (w/v) sodium thiosulfate in deionized water for 1 min. The sodium thiosulfate was discarded and the gel was rinsed with deionized water (2×). After the last rinse, the gel was submerged in chilled 0.1% (w/v) silver nitrate in deionized water and rocked at 4° C. for 20 min. Next, the silver nitrate solution was discarded and the gel was rinsed with deionized water (2×). To develop the gel, the gel was incubated in developing solution (2% w/v sodium carbonate, 0.04% formaldehyde until the desired intensity of staining was reached (˜1-3 min). When the desired intensity of staining was reached, the development was topped by discarding the developing solution and submerging the gel in 5% acetic acid.

Series [3] in a line: size exclusion chromatography in sodium acetate buffer. The series is classed as physicochemical. Particulars: for oligomer state consistent with SEC elution volume: acetate buffer; for oligomer size by SEC: sodium acetate buffer pH 4.5. As to the method:
The elution profiles in acetate buffer of trimers were compared to peptides 1 and 2. Size standards vitamin B12 (1.3 kDa), aprotinin (6.5 kDa), and […] (12.4 kDa) eluted at 18.6 mL, 15.4 mL, and 13.4 mL, respectively (FIG. 31A). Trimer 3 and […] eluted at 14.3 mL and at 14.5 mL, respectively. These elution volumes are consistent with the molecular weight of a hexamer (10.6 kDa). The peaks for trimers 3 and 4 tail slightly and may reflect a trimer-hexamer equilibrium in which the hexamer predominates.
Peptides 1 and 2 elute at 16.8 mL and 17.3 mL, respectively.
The oligomerization of peptides 1 and 2 and trimers 3 and 4 was studied by size-exclusion chromatography (SEC) at 4 CC in 50 mM sodium acetate/50 mM acetic acid buffer (sodium acetate buffer) at pH 4.5 as follows: Each peptide or trimer was dissolved in deionized water to a concentration of 10 mg/mL. The peptide or trimer solutions were then diluted to 1 mg/mL by adding 80 μL of the 10 mg/mL solutions to 720 μL of sodium acetate buffer. The peptide or trimer solutions were loaded onto a GE Superdex 75 10/300 GL column at 0.5 mL/min over 1 min. After loading, the samples were run with sodium acetate buffer at 1 mL/min, Chromatograms were recorded at 214 nm and normalized to the highest absorbance value. Standards (cytochrome C, aprotinin, and vitamin B12) were run in the same fashion.
On the technique in general: In gel filtration, larger molecules generally elute earlier.

In the case of “peptide 1: macrocyclic β-sheet peptide: Aβ17-23 and Aβ30-36 strands linked by two δOrn turns, Orn35, N-methyl on G33 (Seq. ID 18-19)”, in series [1], the caspase-3 activation result is “no” and the “induction of caspase-3 mediated apoptosis” value (from here on “induction”) is on record as “little or no effect”. The “oligomer size by SDS-PAGE” value in series [2] is listed as 1-2. Also, in series [3], the “oligomer state consistent with SEC elution volume” value (“oligomer state consistent” for short) was “dimers” and the “oligomer size by SEC” value is on record as 1-2.

Consider “peptide 2: macrocyclic β-sheet peptide: Aβ17-23 and Aβ30-36 strands linked by two δOrn turns, Orn35, N-methyl on F20 (Seq. ID 20-21)”, for which, in series [1], the caspase-3 activation entry is reported as “no” and the “induction” value is “little or no effect”. Also, in series [2], the “oligomer size by SDS-PAGE” value was 1-2 and the “oligomer state by migration in SDS-PAGE” value is given as “monomer or dimer”. For the same substance, in series [3], the “oligomer state consistent” value is on record as “dimers” and the “oligomer size by SEC” value is given as 1-2.

Regarding “trimer 3: symmetric tris-disulfide crosslinked trimer generated from peptide 3 (chain 1 [Orn]CVFFCED; chain 2 [Orn]AIIGL[Orn]V; not fully specified (some residues); also: symmetric tris-disulfide crosslinked trimer, macrocyclic by macrolactamization, linkage of strands not given here)”, in series [1], the caspase-3 activation result is reported as “yes”, the “caspase-3 activity level compared to staurosporine” value is on record as “comparable” and the “induction” value is on record as “induced apoptosis”. Also, in series [2], the “oligomer size by SDS-PAGE” value is on record as 6 and the “oligomer state by migration in SDS-PAGE” value was “hexamer”. Further, in series [3], the “oligomer state consistent” value was “hexamer” and the “oligomer size by SEC” value worked out at 6.

“trimer 4: symmetric tris-disulfide crosslinked trimer generated from peptide 4 (chain 1 [Orn]CVF[NMeF]CED; chain 2 [Orn]AIIGL[Orn]V; also: symmetric tris-disulfide crosslinked trimer, macrocyclic by macrolactamization, linkage of strands not given here)”: in series [1], the caspase-3 activation entry is “yes”, the “caspase-3 activity level compared to staurosporine” value is “comparable” and the “induction” value was “induced apoptosis”. In series [3], the “oligomer state consistent” value is on record as “hexamer” and the “oligomer size by SEC” value came out at 6.
